{
  "source": "patent US20240400717A1",
  "about": "“Antibody Binding to CHI3L1 for Treating Cancer” (National Cheng Kung University, priority 2021, published 2024)",
  "key": {"[1]": {"test_system": "KPPC-luc cells", "experiment": "KPPC-luc orthotopic C57BL/6J mice model, mAb and chemotherapy combination", "conditions": "for tumor weight: day 29"}, "[2]": {"biological_target": "mouse rCHI3L1 (Mus musculus, UniProt Q61362)", "sequence (Q61362 30-389)": "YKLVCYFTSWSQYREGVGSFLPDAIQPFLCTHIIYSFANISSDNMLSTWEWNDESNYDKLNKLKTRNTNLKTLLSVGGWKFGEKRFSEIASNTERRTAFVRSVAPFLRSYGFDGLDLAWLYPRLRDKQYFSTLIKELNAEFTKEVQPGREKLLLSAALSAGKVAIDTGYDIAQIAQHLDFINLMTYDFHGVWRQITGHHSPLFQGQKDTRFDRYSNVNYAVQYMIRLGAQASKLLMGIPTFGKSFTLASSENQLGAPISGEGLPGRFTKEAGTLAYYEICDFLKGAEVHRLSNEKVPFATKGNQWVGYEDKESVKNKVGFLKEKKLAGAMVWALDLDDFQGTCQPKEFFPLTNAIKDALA", "experiment": "ELISA binding to mouse rCHI3L1", "conditions": "FIG. 10B", "method": "FIGS. 10A to 10B show binding curves of ELISA assay indicated the binding of R4-4 (circle), R4-54 (square), 293R3-2 (triangle), and 293R3-4 (reverse triangle) to (FIG. 10A) human rCHI3L1 and (FIG. 10B) mouse rCHI3L1.\n(§1) Thus, we established orthotopic animal models by directly injecting murine pancreatic cancer KPPC-luc cells (5×10^6) into pancreas of immunocompetent (C57BL/6J) mice. All mice were divided into two groups and treated with IgG isotype antibody as control, or mAb clone R4-4 (5 mg/kg) by intravenous (i.v.) injection via tail-vein at indicated time points (Day 3, Day 7, Day 10, and Day 14). Mice were sacrificed to verify tumor information on day 28. […] Data was presented as means±S.D. P values refer to two-tailed Student's t test. * P<0.05, ** P<0.01."}, "[3]": {"experiment": "Mouse muscle fiber area analysis (cachexia) in KPPC-luc orthotopic model", "format": "in vivo, C57BL/6J mice", "method": "Since pancreatic patients often suffer from cachexia, the cancer-related muscle loss disorder (Henderson et al. 2018; Yoo et al. 2021), we further performed the mouse muscle fiber area analysis in IgG and R4-4 (10 mg/kg) groups. […] The value of the cross-sectional cutoff area was set to 1800, representing severe muscle loss (FIG. 15D)."}, "[4]": {"biological_target": "mouse CHI3L1 antigen (Mus musculus, UniProt Q61362)", "sequence (Q61362 30-389)": "as above", "experiment": "Direct ELISA of phage clones, cross-reaction with mouse CHI3L1", "format": "binding", "conditions": "FIG. 1C"}, "[5]": {"test_system": "KPPC-luc cells", "experiment": "KPPC-luc orthotopic C57BL/6J mice model, mono-treatment", "format": "in vivo", "method": "as §1"}, "[6]": {"test_system": "MiaPaCa-2 cells", "experiment": "MiaPaCa-2 subcutaneous xenograft NOD-SCID mice, efficacy and toxicity", "format": "in vivo", "conditions": "for histology of liver, lung and kidney / mice body weight / serum level of GOT, GPT, BUN, albumin and creatinine: 5 mg/kg i.v.; for growth of MiaPaCa-2 subcutaneous xenografts: 5 mg/kg i.v. day 7, 14, 21, sacrificed day 28; for mice body weight / serum level of GOT, GPT, BUN, albumin and creatinine: vs IgG control", "method": "Next, we examined whether our mAb clones R4-4 and R4-54 exert any toxicity in vivo. We performed a xenograft model by subcutaneously implanting MiaPaCa-2 cells to NOD-SCID mice. The mice were i.v. injected with IgG isotype, mAb clone R4-4, or clone R4-54 (5 mg/kg) once a week starting from day 7 to day 21, that is, day 7, day 14, and day 21, and mice were sacrificed on day 28. […] To evaluate the potential safety of our developed mAbs, we examined body weight, serum biochemical markers and histology sections of three major organs of tumor-bearing mice. […] Scale bar 100 μm. P values were determined by one-way ANOVA. * P<0.05, ** P<0.01, *** P<0.001, **** P<0.0001."}, "[7]": {"test_system": "MiaPaCa-2 cells", "experiment": "MiaPaCa-2-bearing hHSC-HIS mouse model", "format": "in vivo, hHSC reconstituted ASID mice", "from_the_text": "(§2) We used the advanced severe immunodeficiency (ASID) mice those were implanted with human […] hematopoietic stem cells (HSCs). MiaPaCa-2 and H460 cells were then subcutaneously injected into hHSC reconstituted ASID mice to evaluate the anti-tumor effects of CHI3L1 mAb clone R4-54 on lung and pancreatic cell lines in vivo. […] Tumor and peripheral blood were also harvest for further immune cell population examinations. […] In addition, peripheral blood samples of two tumor-bearing hHSC-HIS mice models were collected for analysis of immune cell populations. […] Data was presented as means±S.D. P values refer to two-tailed Student's t test. * P<0.05, ** P<0.01, *** P<0.001."}, "[8]": {"test_system": "H460 cells", "experiment": "H460-bearing hHSC-HIS mouse model", "format": "in vivo, hHSC reconstituted ASID mice", "from_the_text": "as §2"}, "[9]": {"conditions": "immunohistochemical staining, CD86 and CD163"}},
  "data": [
    {"molecule": "R4-4: fully human anti-CHI3L1 IgG1 mAb, Table 1 No. 9; heavy chain SEQ ID NO: 9, light chain SEQ ID NO: 10 (antibody, listed as Homo sapiens) VH: EVQLLESGGGLLQPGGSLRLSCAASGLTFRNYAMTWVRQAPGKGLEWVSTISGNGDETFYADSVKGHFTISRDNSKDTVYLQMNSLRAEDTAVYYCAKGGHYSFFDSWGQGSPVTVSS light: NFMLTQPHSVSESPGKTVTISCTRSSGSIASNYVQWYQQRPGSSPTTVIYEDNQRPSGVPDRFSGSIDSSSNSASLTISGLKTEDEADYYCQSYDSSNYVFGTGTKVTVLGQPKANPTVTLFPPSSEELQANKATLVCLISDFYPGAVTVAWKADGSPVKAGVETTKPSKQSNNKYAASSYLSLTPEQWKSHRSYSCQVTHEGSTVEKTVAPAECS", "values": [
      {"measurement": "tumor weight", "setting": "[1]; GEM 25 mg/kg, R4-4 10 mg/kg, Abraxane 2.5 mg/kg, i.p. day 14, 20, 25", "result": 2.61, "unit": "g"},
      {"measurement": "tumor weight", "setting": "[1]; R4-4 15 mg/kg i.p. day 14, 20, 25", "result": 1.74},
      {"measurement": "Treg (CD4+, CD25+, Foxp3+)", "setting": "[1]; R4-4 15 mg/kg, flow cytometry", "result": "significant decrease of Treg"},
      {"measurement": "angiogenesis level indicated by CD31", "setting": "[1]; all treated groups (R4-4 10 or 15 mg/kg)", "result": "largely reduced"},
      {"measurement": "tumor-infiltrating M1-like TAMs (CD86+, CD11b+) and M1/M2 ratio", "setting": "[1]; flow cytometry", "result": "increased M1-like TAMs"},
      {"measurement": "tumor-infiltrating M2-like TAMs (CD206+, CD11b+)", "setting": "[1]; flow cytometry", "result": "decreased M2-like TAMs"},
      {"measurement": "cross-reaction with murine CHI3L1", "setting": "[2]", "result": "the only one that could cross-react with murine CHI3L1"},
      {"measurement": "muscle fiber area", "setting": "[3]; R4-4 10 mg/kg compared to IgG", "result": "larger muscle fiber area"},
      {"measurement": "muscle fibers below the cutoff value", "setting": "[3]; R4-4 10 mg/kg, cross-sectional cutoff area 1800", "result": 30.4, "unit": "%"},
      {"measurement": "recognition of mouse CHI3L1 by phage clones", "setting": "[4]", "result": "cross-react with mouse CHI3L1"},
      {"measurement": "tumor weight", "setting": "[5]; 5 mg/kg i.v. Day 3, 7, 10, 14, day 28, vs IgG", "result": "significant reduction of tumor weight"},
      {"measurement": "body weight", "setting": "[5]; 5 mg/kg i.v., vs IgG", "result": "without apparently body weight change"},
      {"measurement": "M1/M2 ratio", "setting": "[5]; flow cytometry, 5 mg/kg i.v.", "result": "increased the M1/M2 ratio"},
      {"measurement": "tumor infiltrating M2-like TAMs (CD206+)", "setting": "[5]; flow cytometry, 5 mg/kg i.v.", "result": "decreased"},
      {"measurement": "tumor infiltrating Treg (CD45+, Foxp3+) populations", "setting": "[5]; flow cytometry, 5 mg/kg i.v.", "result": "decreased"},
      {"measurement": "histology of liver, lung and kidney", "setting": "[6]", "result": "no significant adverse effects"},
      {"measurement": "growth of MiaPaCa-2 subcutaneous xenografts", "setting": "[6]", "result": "significantly delayed the growth"},
      {"measurement": "mice body weight", "setting": "[6]", "result": "no significant change in mice body weight"},
      {"measurement": "serum level of GOT, GPT, BUN, albumin and creatinine", "setting": "[6]", "result": "No obvious difference"}
    ]},
    {"molecule": "R4-54: fully human anti-CHI3L1 IgG1 mAb, Table 1 No. 34; heavy chain SEQ ID NO: 33, light chain SEQ ID NO: 34 (antibody, listed as Homo sapiens) VH: QVQLVESGGGVVQPGRSLRLSCAASGFTFSSYGMHWVRQAPGKGLEWVAVISYDGSDKDYADSVKGRFTISRDNSKNTLFLQMNSLRAEDTAVYYCARDDYDSTYYFDNWGQGTTVTVSS light: SYELTQPPSVSVSPGQTASITCSGDILADQYASWYQQKPGQSPVLVIYHDTKRPSGVPERFSGSTSGNTATLTISGTQAMDEAAYYCQAWDINTAWVFGGGTQLTVLGQPKAAPSVTLFPPSSEELQANKATLVCLISDFYPGAVTVAWKADSSPVKAGVETTTPSKQSNNKYAASSYLSLTPEQWKSHRSYSCQVTHEGSTVEKTVAPTECS", "values": [
      {"measurement": "growth of subcutaneous xenografts", "setting": "[7]; 5 mg/kg i.v. every five days from day 14, day 32", "result": "significantly delayed the growth"},
      {"measurement": "M2-like TAM and Treg populations in tumor-infiltrating immune cells", "setting": "[7]; flow cytometry", "result": "M2-like TAM and Treg populations were decreased"},
      {"measurement": "percentages of M1 macrophages and CD8+ T cells in tumor-infiltrating immune cells", "setting": "[7]; flow cytometry", "result": "increased the percentages of M1 macrophages and CD8+ T cells"},
      {"measurement": "intratumoral M1 to M2 ratio and CD8 T cells", "setting": "[7]; [9]", "result": "M1 to M2 ratio and CD8 T cells were both increased"},
      {"measurement": "peripheral blood CD8+ T cells and Tregs", "setting": "[7]; peripheral blood", "result": "increased CD8+ T cells and decreased Tregs"},
      {"measurement": "growth of subcutaneous xenografts", "setting": "[8]; 5 mg/kg i.v. every five days from day 6, day 27", "result": "significantly delayed the growth"},
      {"measurement": "M2-like TAM and Treg populations in tumor-infiltrating immune cells", "setting": "[8]; flow cytometry", "result": "M2-like TAM and Treg populations were decreased"},
      {"measurement": "percentages of M1 macrophages and CD8+ T cells in tumor-infiltrating immune cells", "setting": "[8]; flow cytometry", "result": "increased the percentages of M1 macrophages and CD8+ T cells"},
      {"measurement": "intratumoral M1 to M2 ratio and CD8 T cells", "setting": "[8]; [9]", "result": "M1 to M2 ratio and CD8 T cells were both increased"},
      {"measurement": "peripheral blood CD8+ T cells and Tregs", "setting": "[8]; peripheral blood", "result": "increased CD8+ T cells and decreased Tregs"},
      {"measurement": "histology of liver, lung and kidney", "setting": "[6]", "result": "no significant adverse effects"},
      {"measurement": "growth of MiaPaCa-2 subcutaneous xenografts", "setting": "[6]", "result": "significantly delayed the growth"},
      {"measurement": "mice body weight", "setting": "[6]", "result": "no significant change in mice body weight"},
      {"measurement": "serum level of GOT, GPT, BUN, albumin and creatinine", "setting": "[6]", "result": "No obvious difference"}
    ]}
  ]
}
